Measured values reported in the supplement of paper PMC12042874.
± gives the uncertainty stated by the source.

Assay: amyloid nucleation score (Sup35N fusion, yeast selection) (log enrichment); library NNK3; higher = more nucleation; inactive = no reads after selection
How it was run: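 Three technical output replicates were used for random libraries. Psi-negative yeast expressing peptides of 20 random codons fused to Sup35N were induced with 100 μM copper sulfate for 24 hours and grown 7 days at 30°C on medium lacking adenine and uracil, and input and output plasmid inserts were Illumina-sequenced, excluding sequences with under 100 input reads. The nucleation score is the DiMSum log enrichment of output over input reads, centred on the mode score of non-aggregating sequences.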

Substance	amyloid nucleation score
LMGLNYAWDAFWLIFPGLCF	inactive
SRPAYSRRFMLTGDITVIKL	1.66 ± 0.071
SDWRRISVLIMFTEARSFLV	inactive
RLLFSATFSRNFISCTKSSS	inactive
STMDRSVKVVGPSSRPEGSV	inactive
GFDLEVNTGNVVGFEDSAGQ	inactive
CIIFTRMATTGG	inactive
SYKPLVMWLMSGVSASGLMC	inactive
VALWWTVMYRFFMALTFIMQ	inactive
RRTRYDS	inactive
NHLSPMRTKLYLKETNPSSA	inactive
KEVMFR	1.64 ± 0.12
SLPLCWAMAKGSISHRMERY	inactive
LMSAFSIRRGYCCVENSASR	inactive
TRAPVECNLCIGIEKDEVVR	inactive
STRTWQRF	-0.014 ± 0.28
YCCDLYLN	inactive
ARSIFARLQYSHLSSRGEVI	0.018 ± 1
HFKFLYDS	inactive
LNFEATSYLTMRYDLSYVRF	inactive
FIDMLSYIAYIVLFFGASFV	inactive
VGRHDNGVSDFAMTSSWVFF	inactive
TLNFMWASEVLVSMSVSNQL	inactive
SMSTN	inactive

Substance	amyloid nucleation score
TYLALGLSSSMLRESLKWEV	inactive
LNLLKLRKKAPHRPIPGRSG	inactive
RYTNAYRQASLRV	inactive
DTDNWVLTDKTTGCSAVNGG	inactive
PFLLSFKGNMQADSPGC	inactive
GTFLIFDKFKLS	inactive
TARHKHGLSLCDGVADLRGC	inactive
CCGVLQRMKISQKVN	inactive
SGLKMCYLSTGEKSAHAGEV	inactive
ILQMVDVGMEICYTPVLAYF	inactive
VIKTLVSWTYISCRLN	inactive
IRVMA	inactive
LSYVRCVRWWY	inactive
LSLDLSPSNLNPRWFDTPFH	inactive
SNDCRVTVTVFSIGRDSYVL	2.28 ± 0.089
ISNHLVVEYVRWIKSKLLGR	inactive
FRVHLFFGKWRVVVCTR	inactive
RLATHCKHNASCQQSFYRE	inactive
IRTGDLVFVWYIRVTNTIPC	inactive
TCRQNFCYCLDVIVQSCLSS	inactive
SSFYFCFMSCCYGLGFYLEI	inactive
LSYESCFGSHVGMRAEGCSR	-0.485 ± 1.2
YFSACTVKKHTSWCADVT	inactive
SLKRHQTWLDGVEVRVVYMP	inactive

Substance	amyloid nucleation score
SWFSVMGNVFRMHFERRYSV	inactive
CVDCRGESAHLLIARWFMRR	0.387 ± 0.38
LLCNESILKPVTPKWRDCKL	inactive
NVTTNRVTKLLAN	inactive
QLSVYIYLLIQLVISRKRNT	inactive
FVFIFWTLFGRSRVDVASNM	inactive
AASPQARGCILSCNVSRNQT	inactive
SMKVEEIICGFAVVYIDTMY	0.256 ± 0.28
DRNAEELWCTRLLCYESCRT	inactive
CLYLYVRLRYSLVSSSHPFL	inactive
YSGWVCWSLQLTYMTFNFRL	inactive
RRGFFYIH	inactive
ELDAYIRRGLCSLKWCRKLN	inactive
CIREKLILIMTSRSIMLLKS	inactive
NLDRLWTNQGFAFWIRTYVV	inactive
TGRYVNWRASLSFAYNRMMI	inactive
FLETVSFPMKVWSL	inactive
CVSDLCSW	inactive
HLVAMMLCQLDTLTFYRYGG	inactive
TVHSIDRVVIIHRLMND	0.235 ± 0.35
LSNTRLRNMFSRDRGASLEG	inactive
NVNWIRFDFHFVFV	2 ± 0.071
LDIDSFYCVLR	1.23 ± 0.12
ILLIINFG	2.21 ± 0.065

Substance	amyloid nucleation score
VGIIVFLIAFHYYKRSMYWD	inactive
SHNLSWDIGHLGIV	inactive
FLMAINFKVQSVPQNHR	0.211 ± 0.48
SYSHRVVLRDTRTRQAKPRA	inactive
VDEYVLWVSYYPWWYRVNTV	inactive
YISIYFSFNRLIVNATSTTK	inactive
YEIHWSRRKGMWFEYYTFHF	inactive
LQYLRDCEFCRYVCYCNWLY	0.443 ± 0.34
RPRQSTIMKNDTSSVAVSGL	-0.582 ± 1.1
QVRVVGHFKWYRIGTKVRDI	inactive
PDEAVGV	-1.19 ± 2.5
RENTNSFGVNCGTQFGRISL	1.56 ± 0.099
CSSKKRDV	inactive
LKVTSFKALHCLTAYHSSPL	inactive
ISKLVY	inactive
YHFLACCKLVGRRWWFGLQR	inactive
VLVIGMWKTFYNYMQILCQA	inactive
NLCSCDNWRRRRCASMWALV	inactive
QYQCADGKDNFIL	inactive
SFKDCSVDSWFGSIIG	inactive
GMRFCVNVVCMRSLPSCAMK	1.43 ± 0.095
AGTTEWRG	inactive
LYMGSRPFSVIVVRITVGSQ	inactive
WKRNFIW	inactive

Substance	amyloid nucleation score
YCRSSPTLTFCQYSL	inactive
QAVTMRTGVKCYQIGRAWIG	-0.313 ± 0.84
PWKLYYNFQVLLLNAGHLML	inactive
KICWYELNLDNSLVLLGRRY	1.78 ± 0.084
NVISV	inactive
KLSGTLFFGSKGFVFPPYAF	inactive
RGDSRFP	0.08 ± 0.88
CNWMIPASSP	inactive
HSVSLNYLGIR	inactive
SEAIFMVVGVRYEMELRWM	-0.55 ± 1.4
YLFGRFPNGLVGRRGSGLLM	inactive
HPSSNLMHLM	inactive
DFRLLWVQTMSFCLNYQAKL	inactive
FPGRQIYYILVLAQAFASGF	inactive
YRYYFRSEVPEDKEDDGYLL	inactive
LGRKNGGAVNVRRPHFDWDG	inactive
GLWRLSCKSYAWHF	inactive
ACLQRVQVKIHLGFTQTSFV	0.487 ± 0.36
RLYVLAGITLTMTSTTKRSL	inactive
SNDMRGLVGEEIGFLSWN	inactive
